# Results: the nanobody polyreactivity screen of Harvey et al. (2022)
# Assay: yeast display, Sf9 membrane polyspecificity reagent, FACS + sequencing; frameworks hold sequencing errors
# Summary of the method: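 Using colony PCR, genes from sorted yeast display clones were amplified, then sequenced on MiSeq at 2 × 250 and filtered by CDR length. The clones had been stained with 10% biotinylated, detergent-solubilized Sf9 membrane reagent for 1 hour at 4 °C and sorted by FACS into low and high (top ~1%) gates on anti-HA and streptavidin fluorescence. Polyreactivity labels come from the gate of origin.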
row,Sequence,polyreactivity (PSR sort gate)
1,QFQLVESGGGLVQAGGSLRLICDASGSIFYPYTIGWYRQAPWKERQLVAAITWDGGNTYYADSVKGRFTISRDNAKNTVYLQMNSLKREDTAVYYCAAVTSGWGTYRMYYWGQGTQETVSS,high polyreactivity
2,QFQLVESGGGLVQAGGSLRLSCAASGCIFLYYAMGSYRPATGNERELVASISSGGSTNYADSVKGRFTISRDNAKNTVYLQMNSLKPEDTAVYYCAARPYGGGRRSIYYYWGQGTQVTESS,high polyreactivity
3,QFQLVESGGGLVQAGGSLRLSCAASGFTFWLYAMGWYRQAPGKEREFVAAISTSGGSTYADSVKGRFTISRDNAKNTVYLHMNSLKPEDTAVYYCNAGYLLYYDYHLFYWGQGTQVTVSS,low polyreactivity
4,QFQLVESGGGLVQAGGSLRLSCAASGGTFGWNAMGLYRQAPGKERELVAAITSSGGDTYYADSVKGRFTISRDNAKNTVYLQMNSLKPEDTAVYYCAAEDGRQYGYWGQGTQVTVSS,low polyreactivity
5,QFQLVESGGGLVQAGGSLRLSCAASGGTFYSNAMGCYRQAPGKERDLVATITGGGRTYYADSVKGRFTISRDNAKNTVYLQMNSLKPEDNAVYYCAVRGYHQYKYGYWGQGTQVNVSS,high polyreactivity
6,QFQLVESGGGLVQAGGSLRLSCAASGITFVYYAMGGYRQAPGKERELVAAISRGGTSTYYADSVKGRFTISRDNAKNTVYLHMNSLKPEDTAVYYCNARYPKSYRTNYYYWGQGTQVTVSS,high polyreactivity
7,QFQLVESGGGLVQAGGSLRLSCAASGLIFAYNAKGWSRQATGKERELVAAITGGGDGTYYADSVKGRFTISRDNAKYTVYLQMNSLKPEDTAVYYCAADYKYVGSEYGYWGQGTQVTVSS,low polyreactivity
8,QFQLVESGGGLVQAGGSLRLSCAASGLTFVAYAMGWYRQAPGKEMELVAAITRRGGSTYYADSVKGRFTISRDNEKNPVSLQMNSLKPEDTAVYYCAAEGWYSRNPGFDYWGQGTQVTVSS,high polyreactivity
9,QFQLVESGGGLVQAGGSLRLSCAASGRIFCRYAMGWYRQAPGKETELVPVISARGARTYYEDSVKGRFTISRDNAKYTVYLQMNSLKPEDTAVYYCNKVGVLSGYYYPHASGDYWGQGTQVTVSS,high polyreactivity
10,QFQLVESGGGLVQAGGSLRLSCAASGRIFDFYAMGWYREAPGKERELVAAISWRGGSTYYAHSVKGRFTISRDNAKNTVYLQMNSLKPEDTAVYYCATRFGPRYYWGQGTQVTVSS,low polyreactivity
11,QFQLVESGGGLVQAGGSLRLSCAASGRIFDTYVMRWYRQAPGKERDLVAAISGSGGSTYYAYSVKGRFTISRDNAKNTVYLQMNSLKPEDTEVYYCAAARRYYAYRYDYWGQGTQVTVSS,high polyreactivity
12,QFQLVESGGGLVQAGGSLRLSCAASGRIFGDNAMGWYRQAPGKERELVADIDSGGRTNYADSVKGRFTISRDNAKNTVYLQMNSLKPEDTAVYYCARDDIAYLVEYDYWGQGTQVTVSS,low polyreactivity
13,QFQLVESGGGLVQAGGSLRLSCAASGRIFIIYAMGWYRQAPGKERELVAAINRGATTNFADSVKGRFTISRDNAKNTVYLQMNSLKPEDTAVYYCAACSGPSLSRFLRYANDYWGQGTQVTLSS,high polyreactivity
14,QFQLVESGGGLVQAGGSLRLSCAASGRIFLSYAMGWYRQAPGKERELVAAITLSGGSTYYADSVKGRFTISRDNAKNTVSLQMNSLKPEVTGVYYCAADAWFSLRYAPRSYAYGYWGQGTQVTVSS,low polyreactivity
15,QFQLVESGGGLVQAGGSLRLSCAASGRIFPLYVMGWYRQAPGKERELVAAMSRSGSRTYYADSVKGRFTISRDNAKNTVYFQMNSLKPEDTAVYYCAAVPDGTTRYDGDYWGQGTQVTVSS,high polyreactivity
16,QFQLVESGGGLVQAGGSLRLSCAASGRIFYGYAMVWYRQAPGKERDLVAAISWRGGRTYYADSVKGRFTISRDNAKNTVYLQMNSLKPEDTAVYYCNKVFPPQGQLRNMYYWGQGTQVTVSS,high polyreactivity
17,QFQLVESGGGLVQAGGSLRLSCAASGRIFYSYAIGWYRQAPGKERELVAAINWSSVRTYYADSVKGRFTISRDNAKNTVYLQMNSLKPEDTAVYYWNAYSTEWGRYDYWGQGTQVTVSS,high polyreactivity
18,QFQLVESGGGLVQAGGSLRLSCAASGRIFYYYAMGWYRQAPGKERELVAAITRGGSTYADSVKGRFTISRDNAKNTVYLQMNSLKPEDTAVYYCAATYWYWDFRWMDYWGQGTQVTVSS,high polyreactivity
19,QFQLVESGGGLVQAGGSLRLSCAASGRISYAYAMGWYRQAPGKEREFVAAISGSGGSTYYADSVKGRFTISRDNAKKTVYLQMNSLKPEDTAVYYCDAGSGEYYGGKRYYWGQGTQVTVSS,low polyreactivity
20,QFQLVESGGGLVQAGGSLRLSCAASGRIYGLYAKGWYRQAPGKERELVAAISSTGGRTFYADSVKGRFTISRDNAKNTVYFQMNSLKPDDTAVYYCAAYRYSRYRQRYNYCGQGTQVTVSS,high polyreactivity
21,QFQLVESGGGLVQAGGSLRLSCAASGRTFGGYAMGWYRQAAGKVREFVAALTYRGASTYYSDSVKGRFTISRDNAKNTVYFQMNSLKPEDTAVYYCAAEGSIKYFVGYTWGYNYWGQGTQVTVSS,low polyreactivity
22,QFQLVESGGGLVQAGGSLRLSCAASGRTFGRYAMGRDRPAPGKERELVAAINSGGSTYYADSVKGRFTISRDNAKNTVYLQMMSLKPEDTAVYYCDTQWTWKLGYWGQGTQVTVSS,high polyreactivity
23,QFQLVESGGGLVQAGGSLRLSCAASGSIFLSNAMGWYRQAPGKERELVADIDWTGGDTYYADSVKGRFRISRDNAKNTVYLQMNSLKREDTAVYYCAADYGYRNLRTEYGYWGQGTQVTVSS,low polyreactivity
24,QFQLVESGGGLVQAGGSLRLSCAASGSIFRAYAMGRYRQATGKERELVADISRSGGSTYYADSVKGRFTISRDNAKNTVYLQMNSLTQEVTAVYYCAAVFYLYSNLYGEYDYWGQGTQVTVSS,low polyreactivity
25,QFQLVESGGGLVQAGGSLRLSCAASGSIFRENAMGWYRQAPGKEMELVAAIYVRDGDTFYADSVKGRFTISRDNAKNTVYLQMNSLKPEDTAVYYCAADQQKWYTGYDYWGQCTQVTVSS,low polyreactivity
26,QFQLVESGGGLVQAGGSLRLSCAASGSIFSINAMGWYRQAPGKERELVAVISWIGGNTYYADSVKGRFTISRDNAKNTVYLQMNSLKPEDTAVYYCAVATGPVSYRRYYWGQGTQVTVSS,high polyreactivity
27,QFQLVESGGGLVQAGGSLRLSCAASGSISDIYAMGWYRQAPGKERELVASISSGGITNYADSVKGRFTISRDNAKNTVYLQMNSLKPEDTAVYYCAKDRYHISFFYQMEYWGQGTQVTVSS,low polyreactivity
28,QFQLVESGGGLVQAGGSLRLSCAASGSSFTVYAMGWYRQAPGKETELVAAISYVGGSTYYAASVKGRFTISRDNAKNTVYLQMNSLKPEDTAVYYCAADPYYSYGYYHAHGRDVGYWGQGTQVTVSS,low polyreactivity
29,QFQLVESGGGLVQAGGSLRLSCAASGSTFDPYAMGWDTQAPGKEREFLADIDSSVGSTFYADSVKGRFTISRDNPKNTVYLQMNSLKPEDTAVYYCAAASRVAKGRWRLYDYWGQGTQVTVSS,high polyreactivity
30,QFQLVESGGGLVQAGGSLRLSCAASGSTFFVYDMGWYRQATGKEGELVAAISISDGGTYYADSVKGRFTISRDNAKNTVYLQMKSLKPEDTAVYYCAADYSERYFPGYDYWGQGTLVTVSS,low polyreactivity
